According to publication PMC8998802:
pKd: −log10 of the molar value.

Target: CaVβ2a residues 203 to 425, His-tagged
Test: MST

Work on AID-CaV2.1 peptide yielded a pKd of 7.03 to 7.74.
AID-CaV2.2 peptide showed a pKd of 6.68 to 7.92.
